Consider one molecule from article PMC4928127, “Determination of GLUT1 Oligomerization Parameters using Bioluminescent Förster Resonance Energy Transfer” (Scientific Reports, 2016).

In the experiment the target is T1, Nluc-GLUT1 (mouse, UniProt P17809 1-492).
T1 construct: facilitated glucose transporter GLUT1 (SLC2A1), mouse Glut1 open reading frame; BRET donor; also called GLUT1 fused to Nluc at the N-terminus; not shown: Nanoluciferase (Nluc), N-terminal, kept
T1 sequence (looked up): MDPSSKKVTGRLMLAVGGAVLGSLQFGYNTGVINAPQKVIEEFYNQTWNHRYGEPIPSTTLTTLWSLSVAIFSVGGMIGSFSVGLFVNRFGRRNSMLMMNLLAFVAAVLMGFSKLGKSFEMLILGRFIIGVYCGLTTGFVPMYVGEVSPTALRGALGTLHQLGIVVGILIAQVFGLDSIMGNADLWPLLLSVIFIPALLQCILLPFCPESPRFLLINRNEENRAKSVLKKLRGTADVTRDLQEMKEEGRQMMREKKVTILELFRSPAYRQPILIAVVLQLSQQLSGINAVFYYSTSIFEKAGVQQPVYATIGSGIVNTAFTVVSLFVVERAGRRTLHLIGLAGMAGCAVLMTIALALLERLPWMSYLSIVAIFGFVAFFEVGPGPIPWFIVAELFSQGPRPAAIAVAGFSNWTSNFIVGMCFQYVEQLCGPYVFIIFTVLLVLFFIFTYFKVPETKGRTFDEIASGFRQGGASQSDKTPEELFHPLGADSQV
The experiment in a line: FRET or BRET; stable polyclonal 293FT/dox^GB1 cells: constitutive Nluc-GLUT1, mCherry-GLUT1 induced 48 hours with a 2-fold serial dilution of doxycycline; corrected BRET against doxycycline and against mCherry-GLUT1 level relative to endogenous GLUT1 by immunoblot. As to conditions: partners not purified. (In general: BRET reads energy transfer from a luciferase to a nearby fluorophore.)

B1: mCherry-GLUT1 (natural protein, mouse, UniProt P17809 1-492, looked up)
chain: T1 sequence (looked up)
notes: facilitated glucose transporter GLUT1 (SLC2A1), mouse Glut1 open reading frame; BRET acceptor; also called GLUT1 fused to mCherry at the N-terminus; not shown: mCherry, N-terminal, kept
With B1, the “doxycycline concentration at which ~50% of mCherry-GLUT1 is in multimeric complexes (doxycycline EC50 of BRET)” value stood at 4.69 ng/mL.
